Test results as given in the domain aggregation screens of Martell et al. (2025).

Assay: soluble fraction after stress (log2 fold change); higher = more stays soluble; pooled small domains, quantitative proteomics
Conditions: stress: pH 4
How it was run: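 Pooled custom libraries of small protein domains were subjected to pH 4 and measured by high-throughput quantitative proteomics. The log2 fold change in soluble amount per domain is reported, higher values meaning more remained soluble. This is used as a measure of aggregation propensity.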

| Sequence | soluble fraction (log2) |
| --- | --- |
| HMETYTVPEVLGLTPEQAAQLPEVKDIFTLDVKEEGDFSDKPVGTIVRQSPTEGEHRKGDNLVIEVWLSV | -0.269 |
| HMKPVPPLNGTSLRDLALGYAGRYATTAARLKHYLQRKLRERGWGGEDEPDLDGLVARLVELGYVNDEVF | -0.723 |
| HMEKTIQIYDNIIIKDFAEKMEVSPSQVITKLIGLGVMANLNQPIDINSAVIVGKEFGFNVESM | -0.952 |
| HMLMRKAEVGVESLNLRHGPGTQYKVLEILPGGKSLHYLAEPRRGWVRVTTEEGTTGWTFLKFLKPE | -0.0205 |
| HMGSQQIEEGMRRLVASGALRPGASVPSVRDLARDLQVNPATVVRAYQRLVDAGLLVVRRGEGTFVAE | -0.103 |
| HMAAHHIILEEREQLSVSGVEEVESFDENTIVMLTNRGTLIVRGEELHIEKLSLDGGDLRVEGSIDSLTYE | -1.09 |
| HMGTIEEYSKYLINQYFDSLKKPMDAMTTSEKIEIVKSLDKKGIFNLKGSVGELAKRFNTSEKTIYRYLSS | 0.00746 |
| HMLTTIRKATVNDKTRIMEIYAYARQFMAEHGNPNQWKNNNPSEETIDNDIAKQEMYVIETDGEVHAVFY | -1.42 |
| HMQVVDWSQVDKEDYLLATKRRAVSTGELKFLLLNNLTYDLTQTRFFKGMDASYYYEGYNLYQTGE | -0.693 |
| HMLLNPFERLTERELEIADLYAKGYGNLEIANFLSIKQNTVSTYKKRIFEKLGIDNLVELIELIKNY | -0.839 |
| HMQYTTDEVRERVLSVLNQLLLRWIVREGKDMFNIQANAVEISEGIKGELNTELEKIGLAATGFQIDSV | -0.678 |
| HMPTLSKVGSQGEEVRQIQTKLKNWGYLNDRVDGIYGPKTRDAVIWFQKKNGLVADGIAGPATLKAMGIFT | ≥ 0.43 |
| HMREKLKEYVHLLFAGTVGKEDMEQEILQNTLDRFDDWVARGFSEEDAYRKAVSGIGDIDALLG | -2.07 |
| HMPNIQLARNLKYLRLAYGLTQDDLGAFLNISRQAYSNYENLKRSPDLDSLIRLASLYHLSLDDLVSR | -1.24 |
| HMLPGVPVVAGKTQSAATRILKAAGYAVSVVREEAFDGVTGTVLRTSPEAGSPLAPGSRVTLVVLQVV | -0.114 |
| HMGGTFLVRILDPALNIRAQPSLTARINGVIRDKSVYTIVATSFEPKTQITWGKLKSGAGWISIGSKYVKK | 0.0406 |
| HMLSYFKIIKNGLVREGPASYYKIAENLEIGTIVQAFEKHDDWYLIKTHSGRIGWIVASDVTPQV | 0.36 |
| HMDVALEALDESDGAVRLQFSGALQTYLNDSTTAASLEAISKTFRAFYEAAGRPVDTLEVYAAGEPVT | -0.42 |
| HMGKEIEAPDFKNMTLKEAKIAAKEYKIRIKKGDEVVSEEVEKGRIVSQDPDAGTTIKTGSTVTVNISKGL | 0.0135 |
| HMGNKKLVLKLSKKLIKIPSFLNIYSVKLTKNGRELEINLDKSQNEAIDIINLIKKNNISFLEFDIKKR | 0.015 |
| HMTGQLTEEELKQRQERAMSNPEIQGILSDPVMRQVLQDMSTDPKAAAEHQRNPTIMAKIQKLINAGIVQV | -0.0717 |
| HMKYRPGDVVTLRVARMGEMGAFLDAGTGNTNDDILLHKMQQTEEIKAGQDVKVYLYLDPNRRLTASMKL | -0.0269 |
| HMGMSMNEFLNNRLEQLAVEAVDKSSLGEEIFFYAEPATINLFKDAVDEDEYKVVFPVLKSIIEVEQKLSR | -1.69 |
| HMQALDNNDALEEIIKKVITENPSQVTEFRNGKDSLMNFLVGKVMAASGGKANPKTLPETIEKIIK | 0.277 |
| HMENSYSVEDLALKAAISVDTIRYYQGLGLISPPQKNGRRAIYGNDHISRLEEIKKLAFEGFSLRQISLL | 0.22 |

| Sequence | soluble fraction (log2) |
| --- | --- |
| HMNKFKVNERVRVIATGEIGIVKGREILPVEGSKRVNIEYLVKVGNGFSNWKAFSKKELEPVR | ≥ 0.43 |
| HMQTYNQLKRGMTEWIQAGQKQKAYELFAGVAGQLSLSSAAGKKQYNELVTILNRAGFGIPLE | ≥ 0.43 |
| HMHESLAEVAARKLRALIVTGELAPGERVTEAGLTDLLEISRTPAREAIRILSSEGLLVVFPNRGAEVV | -0.815 |
| HMKNSIKLDNFVGMSYDEVISNKEYDFNFVSAFEKTSDYEAGTIIGQTPAAEERVMVGTTVTLTVAQP | 0.158 |
| HMDRADIDAVDAEWVRATMERLGLRAKHIESHTGISKSTLSILLNGHRPLTRWHKIAFYYLFKHIEF | -1.82 |
| HMRMDKHLWLSLLRLINEGSAEELQTKKDELLQSLERLRITRGPVRGDVLRVVRLIDEELVSRLHLDQR | -0.697 |
| HMTKRKNTEFRQQQIIEAAAKLIFKYGSEHLTVKRIAAQVGISEAAIYRHFTSKKSILSFLLSHIEE | -0.317 |
| HMGEIVVPDLIGKSLTEATRILSDSTLTVGKVNYQISSTLLPNTVLDQYPAPGNKLNSGNTVDLFITKE | -0.0586 |
| HMVKEVKVPDVEGLTTEEAIKELKKYGLAYTTKSEENTDIEEGKVIRTEPKKGSTKVKGSTVTIIESSG | 0.253 |
| HMKKVSVKPILELRAAGISMRKIETLMHVSRHTISAIYKAADAYSISWDNVKDFDEDKIYEMLFPPTP | ≥ 0.43 |
| HMTVTMADISQAYNEKRYLTTISLSNTYLTFAKPTTELLSIRYRTYFIIGKYAESLTEIAKL | 0.22 |
| HMDIMLLLYKNIKKRRLEIGMSQEELAQKTGYTSRSSIAKIEKGEVDLQLSKIKLFANALRVSQSELMG | -0.31 |
| HMQDLPPIHLSRGMTDYTLVRSRRRTLSMELKRDGTVVVHAPLRLGVEKIDAFVAAHEAWLARARTRQAER | 0.196 |
| HMKVNQFEVEGNQRYSTEEIAKASGVSKGDNLFLVNKTETARKLLDELAYVRSVNIKRKLPDTLVITVAE | 0.331 |
| HMEQKELAPLVPQEDGSVKLTNLAGYSMREVAAALEGGNLSLIPIGSGTSWKQDPAPGTVLQPGNTVTVYF | -0.209 |
| HMGDVATVKLDNNGLLNMRKSDARGADIVARIPNGTVVQVLNRETEWTQVRYDGKEGYVMSSFLQFAE | 0.0427 |
| HMSYTWHDMYLLAQEYQKEHGNLIIPRNYKGKNGLNLGYWLYKEKLKYRQGKLAPEKIIALEHIGIVWT | 0.22 |
| HMVSDISTQYQKIINEALDKQPEVKLADIVTMIKEQTSNKVQNGIVENVAKQMNGIEIIKIGQAKGVRRTT | 0.152 |
| HMSNYPYLLRTYEGKLAVFTDDLVQPDLVFDVYVRTLPELDQQQLSRGIRVKTYDELTSMIEDYI | -0.956 |
| HMGESVQVPSYVGMGFREAARKARARDFGVAVSDSIYVPGKPPGEIIAQDPKAESRVKEGRTIYFTVAK | -0.0612 |
| HMSGLGELTPRELEVLELMAQGLSNSQIAGRLFLSGAAVAKHVSSIFSKLGFEPGDENRRVRAILAFLNR | -0.751 |
| HMDGVNRDKIEYRLDDLYYLKGSDAPYTGKVFEEWSGQQRVETNYIDGKLDGLSESWHENGQKASEVNY | -0.831 |
| HMRAVPTKLAPFVEVLKAMLEADGHRPKAQRRTAKALHLELISRGYAGGYTRLTDYIRDWRQQQG | -0.411 |
| HMFLTPLEETRLAIEEVVIAKNIAIDLFPRESAIRKQQHELIYHYHLKGLTVGTEKNKRLRIFPRGY | -0.52 |
| HMADDFISTLFSEGIIIDTEVKQFAERQGSPLQFVRHIASNLPEPRDIITMGEVRSVMREGA | -1.04 |

| Sequence | soluble fraction (log2) |
| --- | --- |
| HMSEQLHALIDRLDDIPDDELKKNWPGTLRDLVDVISAELHRQGIEPAQAGMLARKVAAAQAGYMG | -0.742 |
| HMAAQDLIVKTDASQVEARVLEISPDAVRYKRFSNPDGPTYVLPVAEIRYIRYANGEVEYYA | -0.207 |
| HMSETAEFIIQVNGKVRAKLQLPTDISKEEIQKLALADENVQKYLNGEPRKIIFPPNTRLVSIV | -0.0446 |
| HMVAADTVQVPDVTGKTVADAKQALISAGLQVGTVTAKDGKETANTILETSPAAGTSVDKGSKVNLVYSTG | -0.0646 |
| HMAELAKAKLDAAVQVALLKAGALDTDYLAYKLQGMDGVALDDKGSLTGWDTTLETLKSQYPTQFA | -0.388 |
| HMVDSLTIGRRIRQLRTERGMTLEELAAAVGRAPSQLSMIENGRREPKLTLLQAIARALGSTLDALLE | -0.404 |
| HMNHNPSIARKISREIKRGAPPESLLNLARTVNDSYYRSLSFVSIAYSIKGKKSKELFEEAISNLT | -0.0826 |
| HMSFDENEALRKALDVFWEKGYDGTSLSDLTEAMGINKPSLYATFGNKDQLFLKAIEMYENR | -1.44 |
| HMDEPGTGFKWREDVLLRVMEANGIDTSHRDDFVRHAVKFDNDDNLYLKKAEIEDAAAAWVSEHS | -1.59 |
| HMPKAKASARNDTRTRLLTIGTEVLSQKGFASTGVEEILSVAGVPKGAFYYYFESKAAFGLAVIENYE | 0.22 |
| HMVDGTPALTDLKKVSKPGRRHYTGSQEIPRVLNGLGISIVSTSKGIMTGAQARRQKVGGELLAFV | 0.22 |
| HMTSLTSDEEQIINVLRAEESVYINALATKSKIPLQKLLGLLIQLEFKGLIHSLPGSHYKIV | -0.473 |
| HMTNVFSIIGKKALVIKDIDPIHSSGQIKLNGEVWSAETENDEIIKEGSEVEVLKINGVKAIVKLV | 0.149 |
| HMDIDLGAVEEQAVKGSGPGGQKMNKTSSGVLLRYRLGEELVLVKWTRERQHSLNRFLALRELVDEIEAR | -0.099 |
| HMSKHATLLEALAELTVKLKPHTQLPSERQLSEDFGVSRMTLRRAIDVMQSRGYIYTVPSKGLYVSEP | -0.156 |
| HMKDTFHNLSEEKRERIIRAALGEFAASGYEKATLDGVVQAAGISKGGLYEYISSKEDLFRYLLEYSYD | -1.43 |
| HMELSVTDRTRQIRHILKEKGRVEFTSLFEELTKPYVIVTFLSVLEMSKNNELMITQDKTFGSITLEMKG | -0.383 |
| HMPLYKYYTSYQIEPGDTLTSIAQKYTINSDVSVQDYIDEVKKNNNLVSDKINSGSYLVVSYYSNEY | -1.24 |
| HMKSVILQLHPETLRWIREEAQADMADASVIQLLNDWELGTKKPTLSQVQKLSHETHIPFGYFFLKEKPA | -0.203 |
| HMTIPSYAEAVRYVRRQPRINTSTLADGLGIRWSLALDYLERMARSGVVGAIEDDGWWPVAR | 0.329 |
| HMGEVISRSYPLLKTKAKPAEVSEALQKLIKAPATVTFDEKNEVFHINATRLQHTWAEGYFKGLHGK | -0.172 |
| HMKSILSEIPGIGPKKRKSLMMQFGSVKNISEASLKDLSSTKGINSNLSKEIFNFFSVEKNN | 0.15 |
| HMGVSLNELAYRRFKQALVTLSYKPGEYLNTAQVMNDLDMGRTPINQAIHRLANEGLLQVIPRKGVMVS | 0.026 |
| HMSTRYVRTPAGQAEIQARVFKLSRPVRNLLLVINDSRSIDDWLVQVHGITADDVAMLRAEGLIAEVS | -0.214 |
| HMDTFNVIARQEIDGILYEYKIMTVEDYKNQSPENLAVIYENIKAVMEQYDLSEDDADAILVDLLG | -1.51 |
